B1: GS349: dsRNA trigger targeting B. cinerea CDC42 (XM_001545642.2); trigger SEQ ID NO 14, RNA 26, reverse complement 38 (nucleic acid, listed as Botrytis cinerea)
sense: GUUGUCUUGUCUCGCUCAAGCUUGUCCUGUCUGGUCACUUUUCUUUCUGCCUGAUAAUCCAGACCUCGAAAAUAACCAAAAGAUUGGAAAUCGUUUGCUCAUCUUGCAUGCAUUAUUACUUUCCUGGAUCAAUCUCAUUCAACUCGUUCUCGUGCAUUUCAUUCAACCUCAACCCCUACUUUCAGUCAAUUCAAUUUAAUUCAAUCAUUCAAAUCUUUCAUUUCGCACACUUCACAUUCAACCAUCCUCUCUCAAUCAAAUAUCACCACCUCUCUUAUCGAACGUCAUUUUGCAUACAAUCAAUUCCUACAGACCGAGCGCAACUCGAUACAACCAUCGAAUAACUUCUCACACUUGCUUGUUGAAUUGAUUACUGAAGAAAGUGGAUUUCAAAGACCGAUUUUCCCCCUAGAUAUUCAAGAACGGCUUAUUCUUGUCUCGAGACAAAAC
antisense: GUUUUGUCUCGAGACAAGAAUAAGCCGUUCUUGAAUAUCUAGGGGGAAAAUCGGUCUUUGAAAUCCACUUUCUUCAGUAAUCAAUUCAACAAGCAAGUGUGAGAAGUUAUUCGAUGGUUGUAUCGAGUUGCGCUCGGUCUGUAGGAAUUGAUUGUAUGCAAAAUGACGUUCGAUAAGAGAGGUGGUGAUAUUUGAUUGAGAGAGGAUGGUUGAAUGUGAAGUGUGCGAAAUGAAAGAUUUGAAUGAUUGAAUUAAAUUGAAUUGACUGAAAGUAGGGGUUGAGGUUGAAUGAAAUGCACGAGAACGAGUUGAAUGAGAUUGAUCCAGGAAAGUAAUAAUGCAUGCAAGAUGAGCAAACGAUUUCCAAUCUUUUGGUUAUUUUCGAGGUCUGGAUUAUCAGGCAGAAAGAAAAGUGACCAGACAGGACAAGCUUGAGCGAGACAAGACAAC
B2: GS730: dsRNA trigger targeting B. cinerea Bcsec15 (XM_024692064.1); trigger SEQ ID NO 19, RNA 31, reverse complement 43 (nucleic acid, listed as Botrytis cinerea)
sense: UCAACGCAGUCUCCAAAGCUUUGGAUGAAUUCGAUAACCCGGAUGUUAUUCUGCAAACCAAGAAUGUGAUAGCAUUGUUCAUCCAAACAAUGGAGGGUUGGGGAUAUUCAGUUGCCAUAUUAGAUGCUUAUGUGCUUAAGCUUUUCUAUAGAUAUGCUGAUUUGUUAAAACGGAAAUUCAGCACAGAUUUUCAACAGAUUGUGUCUACCGAUGAAUACAUGCCUAUGCCUGUCAAUAGCGAAGAAGACUUUGAUAAAAUCAUUCAAGUCAGUUGGUAUGUUCCGGACAGACCGAAAGAAGAAUACACAUUCCCCGGUGUAUUACCAUUCUCCCAGAUGUACCCAAUGUGCUGUAUAGAUAUCAGAAAUUUCCUGAAUCGAUUCUACUUCAUAAUGGAUGAUCAUUUUCAACAGCCAAACAUUAUUGAUGAGACACUUAAGAAGUCGAUAGAUGAGCUUCUGUCUGAGGAUAUUUGUGA
antisense: UCACAAAUAUCCUCAGACAGAAGCUCAUCUAUCGACUUCUUAAGUGUCUCAUCAAUAAUGUUUGGCUGUUGAAAAUGAUCAUCCAUUAUGAAGUAGAAUCGAUUCAGGAAAUUUCUGAUAUCUAUACAGCACAUUGGGUACAUCUGGGAGAAUGGUAAUACACCGGGGAAUGUGUAUUCUUCUUUCGGUCUGUCCGGAACAUACCAACUGACUUGAAUGAUUUUAUCAAAGUCUUCUUCGCUAUUGACAGGCAUAGGCAUGUAUUCAUCGGUAGACACAAUCUGUUGAAAAUCUGUGCUGAAUUUCCGUUUUAACAAAUCAGCAUAUCUAUAGAAAAGCUUAAGCACAUAAGCAUCUAAUAUGGCAACUGAAUAUCCCCAACCCUCCAUUGUUUGGAUGAACAAUGCUAUCACAUUCUUGGUUUGCAGAAUAACAUCCGGGUUAUCGAAUUCAUCCAAAGCUUUGGAGACUGCGUUGA

Tests used:
[1] = system: B. cinerea; experiment: Open-air field trial on strawberry (Example 4.4, AUDPC of % disease severity); assay type: in vivo, Botrytis cinerea; conditions: FIG. 10
Protocol: RNAi compositions, each containing a dsRNA comprising a trigger sequence (GS349) described herein were evaluated for ability to control botrytis on strawberry in open-air field trials. All test samples were formulated as described in Example 4.3 and were tank mixed with standard adjuvant, Activator 90 0.25% v/v. Compositions were tested at concentrations of 10, 20, 30, and 40 g ai/ha. A biological standard program of Regalia 470 g ai/ha and Stylet Oil 6800 g ai/ha was used as a positive control. A chemical standard program of Captan 2240 g ai/ha and Switch 525 g ai/ha was used for a second positive control. An untreated check group was used as a negative control.
Compositions were applied to strawberry plants using a small plot sprayer delivering 50 gallons of water per acre. Five applications were made at weekly intervals. Disease state was evaluated beginning 6 days after the first application and ending 12 days after the fifth and final application. Percent Disease Severity was assessed and AUDPC was calculated in the same manner as noted in Example 4.1.

[2] = system: Botrytis; experiment: Open-air field trials on grape (Example 4.2, AUDPC of % disease severity); assay type: in vivo, Botrytis cinerea; conditions: for Disease compared with the biological standard program of Serenade and JMS Stylet Oil (AUDPC) / Disease caused by Botrytis compared to untreated check (AUDPC): both trials; for Disease caused by Botrytis compared to untreated check (AUDPC): FIGS. 7 and 8; for Disease compared with the chemical program of Miravis Prime and Switch (AUDPC): second trial
Protocol: RNAi compositions, each containing a dsRNA comprising a trigger sequence (GS730) described herein, were evaluated for ability to control Botrytis on grape in open-air field trials. Non-formulated and formulated compositions were tested. Non-formulated compositions were tank mixed with water and Silwet L-77 0.1% v/v. Formulated samples were formulated with RO water, propylene glycol, a linear alcohol ethoxylate, a lignosulfanate, sodium citrate dihydate, a polyacrylic acid polymer, two biocide compositions, anhydrous citric acid, and an antifoam, all of which are readily commercially available. Non-formulated and formulated GS 730 were each tested at concentrations of 50 g ai/ha and 100 g ai/ha. A standard biological program of Serenade 9.4 I/ha alternating with JMS Sylet Oil 1% v/v was used as a positive control. Chemical standards, Miravis Prime 392 g ai/ha ai and Switch 610 g ai/ha were applied to a second positive control group in alternating applications. An untreated group was used as a negative control
Positive controls were applied to grape plants at bloom, bunch closure, veraison, and 7-10 days before harvest. Test applications were made on the same timing as the positive controls with additional applications seven days after bloom, bunch closure, veraison, and 7-10 days before harvest. Disease state was evaluated over the course of three to four weeks, starting two days after the last application (Slide 3) or 18 days […] the last application. Percent Disease Severity was assessed and AUDPC was calculated in the same manner as noted in Example 4.1.

[3] = non-formulated, 50 and 100 g ai/ha

Molecule | Disease compared with the chemical standard program (AUDPC) ([1]; 10, 20, 30 and 40 g ai/ha, Captan 2240 g ai/ha and Switch 525 g ai/ha) | Disease compared with the biological standard program (AUDPC) ([1]; 10, 20, 30 and 40 g ai/ha, Regalia 470 g ai/ha and Stylet Oil 6800 g ai/ha) | Disease caused by B. cinerea vs untreated check (AUDPC) ([1]; formulated, Activator 90 0.25% v/v, 10, 20, 30 and 40 g ai/ha, five weekly applications) | Disease compared with the biological standard program of Serenade and JMS Stylet Oil (AUDPC) ([2]; formulated, 100 g ai/ha) | Disease caused by Botrytis compared to untreated check (AUDPC) ([2]; formulated, 100 g ai/ha) | Disease compared with the chemical program of Miravis Prime and Switch (AUDPC) ([2]; formulated, 100 g ai/ha) | Disease compared with the biological standard program of Serenade and JMS Stylet Oil (AUDPC) [2, 3] | Disease caused by Botrytis compared to untreated check (AUDPC) [2, 3] | Disease compared with the chemical program of Miravis Prime and Switch (AUDPC) [2, 3]
B1 | no significant difference | no significant difference | significantly reduced disease |  |  |  |  |  | 
B2 |  |  |  | not statistically different | significantly reduced disease | comparable | not statistically different | significantly reduced disease | comparable

— US20230189818A1, “RNA-BASED CONTROL OF BOTRYTIS” (priority 2021, published 2023)
